{"source": "paper PMC3576620", "about": "“Endocytosis of somatodendritic NCKX2 is regulated by Src family kinase-dependent tyrosine phosphorylation” (Frontiers in Cellular Neuroscience, 2013)", "experiment_in_all_cases": "co-IP; HEK293 cells co-transfected with HA-AP2M1 and myc-NCKX2-loop variants; lysate (50 mM Tris-Cl pH 7.4, 150 mM NaCl, 1 mM EDTA, 0.5% Triton X-100) incubated with anti-c-myc agarose overnight at 4°C; eluted with c-myc peptide; anti-HA blot, densitometry, n = 5", "details_in_all_cases": "partners not purified", "key": {"[1]": {"molecular_target": "T1, c-myc-tagged cytoplasmic loop of NCKX2 (myc-NCKX2-loop), wild type (rat, UniProt O54701-1 288-478)", "T1 construct": "K+-dependent Na+/Ca2+ exchanger 2 (NCKX2), rat (NM_031743.2; O54701), cytoplasmic loop region, amino acids 288-478, in pcDNA3.1(+); also called WT; source: HEK293, transfected (calcium phosphate), in lysate; not shown: c-myc, N-terminal, kept", "T1 sequence (looked up)": "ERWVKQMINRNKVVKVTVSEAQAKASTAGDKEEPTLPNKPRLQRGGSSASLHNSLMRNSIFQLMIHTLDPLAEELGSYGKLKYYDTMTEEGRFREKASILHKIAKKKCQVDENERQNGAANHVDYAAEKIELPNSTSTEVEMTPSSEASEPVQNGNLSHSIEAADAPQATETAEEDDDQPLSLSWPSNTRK"}, "[2]": {"molecular_target": "T2, c-myc-tagged cytoplasmic loop of NCKX2, phosphomimetic mutant Y365E (rat, UniProt O54701-1 288-478, Y365E)", "T2 construct": "K+-dependent Na+/Ca2+ exchanger 2 (NCKX2), rat (NM_031743.2; O54701), cytoplasmic loop region, amino acids 288-478, with Y365E; also called myc-NCKX2-loop Y365E; source: HEK293, transfected (calcium phosphate), in lysate; not shown: c-myc, N-terminal, kept", "T2 sequence (looked up)": "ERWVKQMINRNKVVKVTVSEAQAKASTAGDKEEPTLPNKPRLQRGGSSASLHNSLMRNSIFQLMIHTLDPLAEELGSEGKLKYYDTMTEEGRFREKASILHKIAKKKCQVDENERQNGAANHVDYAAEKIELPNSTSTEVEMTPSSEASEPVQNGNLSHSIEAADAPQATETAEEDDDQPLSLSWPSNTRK"}, "[3]": {"molecular_target": "T3, c-myc-tagged cytoplasmic loop of NCKX2, Y371A mutant (rat, UniProt O54701-1 288-478, Y371A)", "T3 construct": "K+-dependent Na+/Ca2+ exchanger 2 (NCKX2), rat (NM_031743.2; O54701), cytoplasmic loop region, amino acids 288-478, with Y371A; also called myc-NCKX2-loop Y371A; source: HEK293, transfected (calcium phosphate), in lysate; not shown: c-myc, N-terminal, kept", "T3 sequence (looked up)": "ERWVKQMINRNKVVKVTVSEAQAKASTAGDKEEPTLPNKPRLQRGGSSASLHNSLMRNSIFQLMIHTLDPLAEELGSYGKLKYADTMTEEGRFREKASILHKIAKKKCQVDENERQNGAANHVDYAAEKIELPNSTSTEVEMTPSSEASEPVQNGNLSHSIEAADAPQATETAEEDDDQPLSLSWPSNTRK"}}, "data": [{"binder": "HA-tagged AP2M1 (μ subunit of adaptor protein complex 2) (natural protein, UniProt P84092 1-435, looked up, AP2M1, μ subunit of adaptor protein complex 2 (NM_053837.1; P84092), cloned into pcDNA3; gift from Dr. Ryan (Kim and Ryan, 2009); also called HA-AP2M1; μ subunit of AP-2; source: HEK293, transfected (calcium phosphate), in lysate) MIGGLFIYNHKGEVLISRVYRDDIGRNAVDAFRVNVIHARQQVRSPVTNIARTSFFHVKRSNIWLAAVTKQNVNAAMVFEFLYKMCDVMAAYFGKISEENIKNNFVLIYELLDEILDFGYPQNSETGALKTFITQQGIKSQHQTKEEQSQITSQVTGQIGWRREGIKYRRNELFLDVLESVNLLMSPQGQVLSAHVSGRVVMKSYLSGMPECKFGMNDKIVIEKQGKGTADETSKSGKQSIAIDDCTFHQCVRLSKFDSERSISFIPPDGEFELMRYRTTKDIILPFRVIPLVREVGRTKLEVKVVIKSNFKPSLLAQKIEVRIPTPLNTSGVQVICMKGKAKYKASENAIVWKIKRMAGMKESQISAEIELLPTNDKKKWARPPISMNFEVPFAPSGLKVRYLKVFEPKLNYSDHDVIKWVRYIGRSGIYETRC", "values": [{"measurement": "amount of coimmunoprecipitated HA-AP2M1", "setting": "[1]", "value": 36.9}, {"measurement": "amount of coimmunoprecipitated HA-AP2M1", "setting": "[2]", "value": 7.83}, {"measurement": "amount of coimmunoprecipitated HA-AP2M1", "setting": "[3]", "value": 41.6}]}]}
